Data published in patent publication US20230053129A1.

Molecular target: Shiga toxin 2 (UniProt P09385)
Sequence (P09385 23-319, chain 1 of 2): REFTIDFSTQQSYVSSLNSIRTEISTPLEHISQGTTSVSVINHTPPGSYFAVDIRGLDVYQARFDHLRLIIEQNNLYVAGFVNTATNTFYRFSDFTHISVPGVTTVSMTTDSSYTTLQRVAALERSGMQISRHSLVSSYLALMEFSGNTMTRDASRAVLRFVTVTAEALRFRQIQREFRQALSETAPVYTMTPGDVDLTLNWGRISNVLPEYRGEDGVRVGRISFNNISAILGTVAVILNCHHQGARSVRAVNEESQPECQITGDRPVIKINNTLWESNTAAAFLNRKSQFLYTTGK
Sequence (P09386 20-89, chain 2 of 2, further chain): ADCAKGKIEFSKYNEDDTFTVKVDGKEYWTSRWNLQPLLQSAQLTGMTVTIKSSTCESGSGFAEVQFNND

NAB815 (OA-Dab-Thr-DThr-cy[Dab-Dab-DPhe-Leu-Abu-Dab-Thr-]) (peptide)
Kd: 5 nM
maximum reduction of fluorescence emission: 10%
